The values below come from publication PMC9628860, “Electron Transfer to Hydroxylase through Component Interactions in Soluble Methane Monooxygenase” (Journal of Microbiology and Biotechnology, 2022).

Structures can show the parent of a compound that is named as a salt.

For assay [1], the target named is T1, MMOR (Methylosinus sporium, UniProt Q27RN2, Y93A).
T1 construct: gene mmoC; full-length reductase (39 kDa), recombinant in E. coli BL21(DE3) from pET30a(+); ferredoxin domain = residues 1-98
T1 sequence (Q27RN2 entry or part of it Y93A): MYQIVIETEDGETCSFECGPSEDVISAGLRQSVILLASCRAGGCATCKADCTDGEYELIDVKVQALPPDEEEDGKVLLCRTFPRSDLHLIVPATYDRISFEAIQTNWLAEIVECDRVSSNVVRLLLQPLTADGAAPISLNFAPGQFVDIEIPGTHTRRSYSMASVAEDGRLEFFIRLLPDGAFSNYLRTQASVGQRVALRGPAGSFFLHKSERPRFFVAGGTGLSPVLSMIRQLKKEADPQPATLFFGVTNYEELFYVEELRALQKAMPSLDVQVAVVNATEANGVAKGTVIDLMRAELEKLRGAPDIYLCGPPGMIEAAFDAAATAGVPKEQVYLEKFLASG
Put plainly: UV-visible spectrum of purified protein, cofactor content. As to conditions: FAD as purified, calibrated for [2Fe-2S] absorption; FAD/NADH-binding domain; stoichiometry, not an affinity; extra FAD said to be non-specific.

In assay [2] the target is T2, MMOR (Methylosinus sporium, UniProt Q27RN2, Y95A).
T2 construct: gene mmoC; full-length reductase (39 kDa), recombinant in E. coli BL21(DE3) from pET30a(+); ferredoxin domain = residues 1-98
T2 sequence (Q27RN2 entry or part of it Y95A): as the sequence (Q27RN2 entry or part of it Y93A) above, with A93Y, Y95A counted along it
The description is as above. As to conditions: FAD as purified, calibrated for [2Fe-2S] absorption; FAD/NADH-binding domain.

The target in assay [3] is T3, sMMO (MMOH + MMOB + MMOR) (Methylosinus sporium, UniProt Q27RN2, Y93A).
T3 construct: gene mmoC; recombinant MMOB and MMOR (39 kDa) from E. coli; with Methane monooxygenase component A alpha chain; Methane monooxygenase component A beta chain; Methane monooxygenase component A gamma chain; Methane monooxygenase regulatory protein B
T3 sequence (Q27RN2 entry or part of it Y93A): as the sequence (Q27RN2 entry or part of it Y93A) above
T3 sequence (Q27RN4 entry or part of it, stated change not applied, further chain): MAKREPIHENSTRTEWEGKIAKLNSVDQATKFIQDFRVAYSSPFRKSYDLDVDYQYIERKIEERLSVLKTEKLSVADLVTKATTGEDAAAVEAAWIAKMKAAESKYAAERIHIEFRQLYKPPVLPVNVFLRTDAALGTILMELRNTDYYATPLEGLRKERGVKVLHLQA
T3 sequence (Q27RN6 entry or part of it, stated change not applied, further chain): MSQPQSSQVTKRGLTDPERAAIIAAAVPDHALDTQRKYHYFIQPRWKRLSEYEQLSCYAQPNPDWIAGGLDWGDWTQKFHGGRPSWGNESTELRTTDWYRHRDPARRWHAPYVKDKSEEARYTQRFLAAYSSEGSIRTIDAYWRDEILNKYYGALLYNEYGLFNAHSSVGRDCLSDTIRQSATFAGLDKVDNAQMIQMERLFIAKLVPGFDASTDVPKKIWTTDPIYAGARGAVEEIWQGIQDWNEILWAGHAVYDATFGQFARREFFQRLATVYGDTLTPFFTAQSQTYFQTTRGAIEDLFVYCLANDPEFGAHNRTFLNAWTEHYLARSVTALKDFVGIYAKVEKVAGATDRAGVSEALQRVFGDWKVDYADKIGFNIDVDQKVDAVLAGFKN
Put plainly: NADH consumption at […] nm. The format is biochemical. Conditions: turnover; propylene and O2 as co-substrates; 1 uM MMOH, 2 equiv. MMOB, 0.5 or 1.0 equiv. MMOR; 25 mM phosphate, 50 mM NaCl, pH 7.0.

The target in assay [4] is Hydroxylase (MMOH) of soluble methane monooxygenase (sMMO) from Methylosinus sporium 5 (Methylosinus sporium 5). Put plainly: other fluorescence titration; tryptophan quenching (Ex 282 nm, Em 336 nm); MMOH 0.32 uM in the cuvette, MMORs added from 0 to 110 equivalents; 25 mM MOPS, 50 mM NaCl, 1 mM DTT, pH 6.5; fitted with a 1:2 binding model.

`Cc1cc2nc3c(=O)[nH]c(=O)nc-3n(C[C@H](O)[C@H](O)[C@H](O)COP(=O)(O)OP(=O)(O)OC[C@H]3O[C@@H](n4cnc5c(N)ncnc54)[C@H](O)[C@@H]3O)c2cc1C` [flavin adenine dinucleotide] displayed an FAD/protein on MMOR [1] of 2.0 FAD/protein. At MMOR [2], the “FADs per purified reductase” value was “two irons and two FADs per purified reductase”.
In the case of `NC(=O)C1=CN([C@@H]2O[C@H](COP(=O)(O)OP(=O)(O)OC[C@H]3O[C@@H](n4cnc5c(N)ncnc54)[C@H](O)[C@@H]3O)[C@@H](O)[C@H]2O)C=CC1` [β-nicotinamide adenine dinucleotide, reduced disodium salt hydrate], the “NADH consumption at 340 nm” value in assay [3] is “The activity of MMOR-Y93A was dramatically reduced”.
Turning to MMOR-Y93A (enzyme), in assay [4], the Kd1 (first site, 1:2 binding model) stood at 0.15 µM and the Kd2 (second site, 1:2 binding model) is 17 µM.
In the same order, the values of MMOR-Y95A (enzyme) are 0.21 µM and 7.97 µM.
